Substitutions are numbered along the chain they refer to.
Key:
Assay in all cases: EMSA
Details in all cases: DIG gel shift kit (2nd generation, Roche), as in ref 14; buffer, salt, pH and temperature not stated
[1] = tested on: T1, GdhR WT (Neisseria gonorrhoeae), ORF:8165ddaf
T1 sequence: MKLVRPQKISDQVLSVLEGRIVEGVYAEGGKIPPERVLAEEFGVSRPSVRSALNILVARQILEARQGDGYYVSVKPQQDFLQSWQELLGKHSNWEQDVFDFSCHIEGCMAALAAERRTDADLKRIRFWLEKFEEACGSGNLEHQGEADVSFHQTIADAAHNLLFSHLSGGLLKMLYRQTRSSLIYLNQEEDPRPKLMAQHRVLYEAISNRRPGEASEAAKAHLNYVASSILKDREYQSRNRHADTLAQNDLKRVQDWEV

[2] = tested on: GdhR WT;GdhR P6S P6S (Neisseria gonorrhoeae;Neisseria gonorrhoeae MS11), ORF:8165ddaf+ORF:8165ddaf
[3] = tested on: T2, GdhR P6S P6S (Neisseria gonorrhoeae MS11), ORF:8165ddaf
T2 sequence: T1 sequence with P6S

Question: Which results are given for “GTGGACGGGGACGGCGCGGTATTCGTGCCGCCGGAAGAATGCTGAAAATGCCGTCTGAAGCCTTTCGGGCGGCTTTTTCTACACGCCCCTTTCCCACACTCCCTCCGCCGCATCATCACCATCCTTAACCCGCATTAATAGCCATTATCGATAAAATGCTTGACCGATTACATAAGATTACGTAAAGTGTGCAAACGCATAATAATTGGTCTTACCAATTTATCTTTTAACCAAAATATCGGGTGTGCGGGATTTGAACGTCTTTCCAAACCTCGACGCGCCTTATGATGC (double strand) [lctP promoter -313 to -23]”?
Answer: binding [1]: binds; binding [2]: binds; binding [3]: binds more weakly

— paper PMC9040798
